Assay results published in US20190032032A1.

Target: HSP90 (heat shock protein 90) (human (endogenous in the human Huh7.5-derived JFH-1 cell line)) (UniProt P07900)
Assay: cell-based or functional assay

Q: How did the mean 50% inhibitory concentration (IC50) of HIV-1 viral particle production in MT-4 cells, p24 ELISA turn out when “PEP1 peptide (hTERT-derived 16mer peptide, 611-…-626)” was run?
A: 0.85 µM
